Measurements published in patent US20040010124A1 (MacroGenics, published 2004).

B1: hu3G8VH-3/hu3G8VL-1 (antibody, V domains shown)
VH: QVTLRESGPALVKPTQTLTLTCTFSGFSLRTSGMGVGWIRQPPGKALEWLAHIWWDDDKRYNPALKSRLTISKDTSKNQVVLTMTNMDPVDTATYYCARINPAWFAYWGQGTLVTVSS
VL: DIVMTQSPDSLAVSLGERATINCKASQSVDFDGDSFMNWYQQKPGQPPKLLIYTTSNLESGVPDRFSGSGSGTDFTLTISSLQAEDVAVYYCQQSNEDPYTFGQGTKLEIK
notes: Human Cγ1/Cκ constant regions; HEK-293
B2: hu3G8VH-8/hu3G8VL-1 (antibody, V domains shown)
VH: QVTLRESGPALVKPTQTLTLTCTFSGFSLSTSGMGVGWIRQPPGKALEWLAHIWWDDDKRYNPALKSRLTISKDTSKNQVVLTMTNMDPVDTATYYCARINPAYFAYWGQGTLVTVSS
VL: DIVMTQSPDSLAVSLGERATINCKASQSVDFDGDSFMNWYQQKPGQPPKLLIYTTSNLESGVPDRFSGSGSGTDFTLTISSLQAEDVAVYYCQQSNEDPYTFGQGTKLEIK
notes: as for B1
B3: hu3G8VH-14/hu3G8VL-1 (antibody, V domains shown)
VH: QVTLRESGPALVKPTQTLTLTCTFSGFSLSTSGMGVGWIRQPPGKALEWLAHIWWNDDKRYNPALKSRLTISKDTSKNQVVLTMTNMDPVDTATYYCARINPAWFAYWGQGTLVTVSS
VL: DIVMTQSPDSLAVSLGERATINCKASQSVDFDGDSFMNWYQQKPGQPPKLLIYTTSNLESGVPDRFSGSGSGTDFTLTISSLQAEDVAVYYCQQSNEDPYTFGQGTKLEIK
notes: as for B1
B4: hu3G8VH-17/hu3G8VL-1 (antibody, V domains shown)
VH: QVTLRESGPALVKPTQTLTLTCTFSGFSLSTSGMGVGWIRQPPGKALEWLAHIWWDDDKRYNPALKSRLTISKDTSKNQVVLTMTNMDPVDTATYYCAAINPAWFAYWGQGTLVTVSS
VL: DIVMTQSPDSLAVSLGERATINCKASQSVDFDGDSFMNWYQQKPGQPPKLLIYTTSNLESGVPDRFSGSGSGTDFTLTISSLQAEDVAVYYCQQSNEDPYTFGQGTKLEIK
notes: as for B1
B5: hu3G8VH-5/hu3G8VL-1 (antibody, V domains shown)
VH: QVTLRESGPALVKPTQTLTLTCTFSGFSLSTSGMGVGWIRQPPGKALEWLAHIWWDDDKRYNPALKSRLTISKDTSKNQVVLTMTNMDPVDTATYYCAQINPAWFAYWGQGTLVTVSS
VL: DIVMTQSPDSLAVSLGERATINCKASQSVDFDGDSFMNWYQQKPGQPPKLLIYTTSNLESGVPDRFSGSGSGTDFTLTISSLQAEDVAVYYCQQSNEDPYTFGQGTKLEIK
notes: Human Cγ1/Cκ constant regions; HEK-293; also called Hu3G8-5.1; h3G8 5.1
B6: hu3G8VH-25/hu3G8VL-1 (antibody, V domains shown)
VH: QVTLRESGPALVKPTQTLTLTCTFSGFSLSTSGVGVGWIRQPPGKALEWLAHIWWDDDKRYSPSLKSRLTISKDTSKNQVVLTMTNMDPVDTATYYCAHINPAYFAYWGQGTLVTVSS
VL: DIVMTQSPDSLAVSLGERATINCKASQSVDFDGDSFMNWYQQKPGQPPKLLIYTTSNLESGVPDRFSGSGSGTDFTLTISSLQAEDVAVYYCQQSNEDPYTFGQGTKLEIK
notes: as for B1
B7: hu3G8VH-16/hu3G8VL-1 (antibody, V domains shown)
VH: QVTLRESGPALVKPTQTLTLTCTFSGFSLSTSGMGVGWIRQPPGKALEWLAHIWWDDDKRYNPALKSRLTISKDTSKNQVVLTMTNMDPVDTATYYCAKINPAWFAYWGQGTLVTVSS
VL: DIVMTQSPDSLAVSLGERATINCKASQSVDFDGDSFMNWYQQKPGQPPKLLIYTTSNLESGVPDRFSGSGSGTDFTLTISSLQAEDVAVYYCQQSNEDPYTFGQGTKLEIK
notes: as for B1
B8: hu3G8VH-29/hu3G8VL-1 (antibody, V domains shown)
VH: QVTLRESGPALVKPTQTLTLTCTFSGFSLSTSGVGVGWIRQPPGKALEWLAHIWWDDDKRYSPSLKSRLTISKDTSKNQVVLTMTNMDPVDTATYYCAHINPAYFDYWGQGTLVTVSS
VL: DIVMTQSPDSLAVSLGERATINCKASQSVDFDGDSFMNWYQQKPGQPPKLLIYTTSNLESGVPDRFSGSGSGTDFTLTISSLQAEDVAVYYCQQSNEDPYTFGQGTKLEIK
notes: as for B1
B9: hu3G8VH-4/hu3G8VL-1 (antibody, V domains shown)
VH: QVTLRESGPALVKPTQTLTLTCTFSGFSLSTSGMGVGWIRQPPGKALEWLAHIWWDDDKRYNPALKSRLTISKDTSKNQVVLTMTNMDPVDTATYYCAQINPAWFDYWGQGTLVTVSS
VL: DIVMTQSPDSLAVSLGERATINCKASQSVDFDGDSFMNWYQQKPGQPPKLLIYTTSNLESGVPDRFSGSGSGTDFTLTISSLQAEDVAVYYCQQSNEDPYTFGQGTKLEIK
notes: as for B1
B10: hu3G8VH-6/hu3G8VL-1 (antibody, V domains shown)
VH: QVTLRESGPALVKPTQTLTLTCTFSGFSLSTSGVGVGWIRQPPGKALEWLAHIWWDDDKRYNPALKSRLTISKDTSKNQVVLTMTNMDPVDTATYYCARINPAWFDYWGQGTLVTVSS
VL: DIVMTQSPDSLAVSLGERATINCKASQSVDFDGDSFMNWYQQKPGQPPKLLIYTTSNLESGVPDRFSGSGSGTDFTLTISSLQAEDVAVYYCQQSNEDPYTFGQGTKLEIK
notes: as for B1
B11: hu3G8VH-19/hu3G8VL-1 (antibody, V domains shown)
VH: QVTLRESGPALVKPTQTLTLTCTFSGFSLSTSGMGVGWIRQPPGKALEWLAHIWWDDDKRYNPALKSRLTISKDTSKNQVVLTMTNMDPVDTATYYCAQINPAYFAYWGQGTLVTVSS
VL: DIVMTQSPDSLAVSLGERATINCKASQSVDFDGDSFMNWYQQKPGQPPKLLIYTTSNLESGVPDRFSGSGSGTDFTLTISSLQAEDVAVYYCQQSNEDPYTFGQGTKLEIK
notes: as for B1
B12: hu3G8VH-18/hu3G8VL-1 (antibody, V domains shown)
VH: QVTLRESGPALVKPTQTLTLTCTFSGFSLSTSGMGVGWIRQPPGKALEWLAHIWWDDDKRYNPALKSRLTISKDTSKNQVVLTMTNMDPVDTATYYCAHINPAWFAYWGQGTLVTVSS
VL: DIVMTQSPDSLAVSLGERATINCKASQSVDFDGDSFMNWYQQKPGQPPKLLIYTTSNLESGVPDRFSGSGSGTDFTLTISSLQAEDVAVYYCQQSNEDPYTFGQGTKLEIK
notes: as for B1
B13: hu3G8VH-36/hu3G8VL-1 (antibody, V domains shown)
VH: QITLKESGPTLVKPTQTLTLTCTFSGFSLSTSGVGVGWIRQPPGKALEWLALIWWDDDKRYSPSLKSRLTISKDTSKNQVVLTMTNMDPVDTATYYCAQINPAYFDYWGQGTLVTVSS
VL: DIVMTQSPDSLAVSLGERATINCKASQSVDFDGDSFMNWYQQKPGQPPKLLIYTTSNLESGVPDRFSGSGSGTDFTLTISSLQAEDVAVYYCQQSNEDPYTFGQGTKLEIK
notes: as for B1
B14: hu3G8VH-28/hu3G8VL-1 (antibody, V domains shown)
VH: QVTLRESGPALVKPTQTLTLTCTFSGFSLSTSGVGVGWIRQPPGKALEWLAHIWWDDDKRYSPSLKSRLTISKDTSKNQVVLTMTNMDPVDTATYYCAAINPAYFDYWGQGTLVTVSS
VL: DIVMTQSPDSLAVSLGERATINCKASQSVDFDGDSFMNWYQQKPGQPPKLLIYTTSNLESGVPDRFSGSGSGTDFTLTISSLQAEDVAVYYCQQSNEDPYTFGQGTKLEIK
notes: as for B1
B15: hu3G8VH-24/hu3G8VL-1 (antibody, V domains shown)
VH: QVTLRESGPALVKPTQTLTLTCTFSGFSLSTSGVGVGWIRQPPGKALEWLAHIWWDDDKRYSPSLKSRLTISKDTSKNQVVLTMTNMDPVDTATYYCAAINPAYFAYWGQGTLVTVSS
VL: DIVMTQSPDSLAVSLGERATINCKASQSVDFDGDSFMNWYQQKPGQPPKLLIYTTSNLESGVPDRFSGSGSGTDFTLTISSLQAEDVAVYYCQQSNEDPYTFGQGTKLEIK
notes: as for B1
B16: hu3G8VH-30/hu3G8VL-1 (antibody, V domains shown)
VH: QVTLRESGPALVKPTQTLTLTCTFSGFSLSTSGVGVGWIRQPPGKALEWLAHIWWDDDKRYSPSLKSRLTISKDTSKNQVVLTMTNMDPVDTATYYCAQINPAYFDYWGQGTLVTVSS
VL: DIVMTQSPDSLAVSLGERATINCKASQSVDFDGDSFMNWYQQKPGQPPKLLIYTTSNLESGVPDRFSGSGSGTDFTLTISSLQAEDVAVYYCQQSNEDPYTFGQGTKLEIK
notes: as for B1
B17: hu3G8VH-27/hu3G8VL-1 (antibody, V domains shown)
VH: QVTLRESGPALVKPTQTLTLTCTFSGFSLSTSGVGVGWIRQPPGKALEWLAHIWWDDDKRYSPSLKSRLTISKDTSKNQVVLTMTNMDPVDTATYYCAKINPAYFDYWGQGTLVTVSS
VL: DIVMTQSPDSLAVSLGERATINCKASQSVDFDGDSFMNWYQQKPGQPPKLLIYTTSNLESGVPDRFSGSGSGTDFTLTISSLQAEDVAVYYCQQSNEDPYTFGQGTKLEIK
notes: as for B1
B18: hu3G8VH-12/hu3G8VL-1 (antibody, V domains shown)
VH: QVTLRESGPALVKPTQTLTLTCTFSGFSLSTSGMGVGWIRQPPGKALEWLAHIWWDDDKRYSPSLKSRLTISKDTSKNQVVLTMTNMDPVDTATYYCARINPAWFAYWGQGTLVTVSS
VL: DIVMTQSPDSLAVSLGERATINCKASQSVDFDGDSFMNWYQQKPGQPPKLLIYTTSNLESGVPDRFSGSGSGTDFTLTISSLQAEDVAVYYCQQSNEDPYTFGQGTKLEIK
notes: as for B1
B19: hu3G8VH-37/hu3G8VL-1 (antibody, V domains shown)
VH: QITLKESGPTLVKPTQTLTLTCTFSGFSLSTSGVGVGWIRQPPGKALEWLALIWWDDDKRYSPSLKSRLTISKDTSKNQVVLTMTNMDPVDTATYYCAKINPAYFAYWGQGTLVTVSS
VL: DIVMTQSPDSLAVSLGERATINCKASQSVDFDGDSFMNWYQQKPGQPPKLLIYTTSNLESGVPDRFSGSGSGTDFTLTISSLQAEDVAVYYCQQSNEDPYTFGQGTKLEIK
notes: as for B1
B20: hu3G8VH-23/hu3G8VL-1 (antibody, V domains shown)
VH: QVTLRESGPALVKPTQTLTLTCTFSGFSLSTSGVGVGWIRQPPGKALEWLAHIWWDDDKRYSPSLKSRLTISKDTSKNQVVLTMTNMDPVDTATYYCAKINPAYFAYWGQGTLVTVSS
VL: DIVMTQSPDSLAVSLGERATINCKASQSVDFDGDSFMNWYQQKPGQPPKLLIYTTSNLESGVPDRFSGSGSGTDFTLTISSLQAEDVAVYYCQQSNEDPYTFGQGTKLEIK
notes: as for B1
B21: hu3G8VH-1/hu3G8VL-1 (antibody, human IgG1, kappa)
heavy: not shown
light: DIVMTQSPDSLAVSLGERATINCKASQSVDFDGDSFMNWYQQKPGQPPKLLIYTTSNLESGVPDRFSGSGSGTDFTLTISSLQAEDVAVYYCQQSNEDPYTFGQGTKLEIKRTVAAPSVFIFPPSDEQLKSGTASVVCLLNNFYPREAKVQWKVDNALQSGNSQESVTEQDSKDSTYSLSSTLTLSKADYEKHKVYACEVTHQGLSSPVTKSFNRGEC
notes: HEK-293; also called Hu3G8-1.1

Molecular target: T1, soluble form of human CD16A (sCD16A) (human, UniProt P08637 17-203)
T1 construct: CD16A gene truncated just prior to the transmembrane region, expressed in HEK-293; The last seven residues come from vector pCDNA3.1; also called sFcRIIIa
Experiment: ELISA, sCD16A captured by mAb LNK-16
Description: The plate was washed and dilutions of recombinant antibodies starting at 0.5 μg/ml in PBS-T-BSA were then added and incubated for 1 hr at room temp. […] After stopping color development using dilute sulfuric acid, the plate was read at 450 nm.

T1 sequence (P08637 other isoform, or with tags, fused parts or gaps limits assumed): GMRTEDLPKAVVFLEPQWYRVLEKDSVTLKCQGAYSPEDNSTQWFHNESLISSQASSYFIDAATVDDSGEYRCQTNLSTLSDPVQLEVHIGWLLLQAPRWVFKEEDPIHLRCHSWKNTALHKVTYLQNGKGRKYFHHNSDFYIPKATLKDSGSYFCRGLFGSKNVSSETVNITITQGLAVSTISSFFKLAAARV

Binding result, binds:
B1, B2, B3, B4, B5, B6, B7, B8, B9, B10, B11, B12, B13, B14, B15, B16, B17, B18, B19, B20, B21
